Reference: patent US20240084044A1, “Heteromultivalent Nucleic Acid Scaffolds and Uses Thereof” (George Mason University, priority 2022, published 2024)
Bridges are numbered along the chain shown (N, C = ends). Roman numbers before positions name the chains, in order. [ ]: non-standard residue; d: D form. Lys(N3) = [N-]=[N+]=NCCCC[C@H](N)C(=O)O

Legend:
[1] = biological target: ST2/IL-33 binary complex (recombinant FLAG-tagged ST2 extracellular domain with recombinant mature IL-33) (UniProt Q01638); test: SPR (OpenSPR), FLAG-ST2 captured on anti-FLAG mAb and loaded with 50 nM IL-33, IL1RAcP as analyte, 1:1 fit; native IL-1RAcP as analyte
[2] = biological target: T1, ST2/IL-33 binary complex (Homo sapiens, UniProt O95760+Q01638); test: SPR dissociation constant for the ST2/IL-33 binary complex; type: binding; conditions: SPR, 1:1 fit; read-out: KD to the binary ST2/IL-33 complex
T1 construct: included the extracellular domains, K19-F328 and S21-E359, respectively; the cleaved mature proteins, S112-T270, A117-S269, and R2-S310, respectively; purchased Sino Biologicals ST2 10105-HCCH; IL-33 10368-HNAE; host or cells: ST2: HEK293; IL-33: E. coli
T1 sequence (Q01638 19-328 isoform Q01638-2): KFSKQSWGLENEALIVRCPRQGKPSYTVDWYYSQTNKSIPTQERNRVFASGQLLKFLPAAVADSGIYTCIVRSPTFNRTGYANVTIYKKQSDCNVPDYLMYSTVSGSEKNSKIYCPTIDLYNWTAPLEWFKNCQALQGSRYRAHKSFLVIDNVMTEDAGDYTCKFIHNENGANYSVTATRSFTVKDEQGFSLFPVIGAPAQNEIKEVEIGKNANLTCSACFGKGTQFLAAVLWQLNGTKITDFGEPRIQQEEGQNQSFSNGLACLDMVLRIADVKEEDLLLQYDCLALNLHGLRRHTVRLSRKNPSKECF
T1 sequence (O95760 112-270): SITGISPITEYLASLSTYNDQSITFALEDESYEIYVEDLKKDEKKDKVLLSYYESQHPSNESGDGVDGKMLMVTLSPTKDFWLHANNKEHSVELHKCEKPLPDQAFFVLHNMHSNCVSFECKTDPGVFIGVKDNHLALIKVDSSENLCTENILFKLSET
From the text: Recombinant ST2 with truncated FLAG (DDDDK) tag (Cat. #10105-HCCH), His-tagged IL1RAcP (Cat. #10121-H08H), IL-33 (Cat. #10368-HNAE), IL-1β (Cat. #10139-HNAE), and FLAG-tagged SIRT5 (Cat. #19202-H22E) were purchased from Sino Biologicals (Wayne, PA). ST2 and IL1RAcP were expressed in HEK293 cells and included the extracellular domains, K19-F328 and S21-E359, respectively. IL-33, IL-1β, and SIRT5 were expressed in E. coli and included the residue sequence of the cleaved mature proteins, S112-T270, A117-S269, and R2-S310, respectively. Lyophilized ST2, and IL1RAcP were reconstituted in ultrapure (18.5 MΩ) water to a concentration of 0.5 mg/mL (5.6 μM) and stored at −80° C. until use. SIRT5 was reconstituted to 0.2 mg/mL (2.87 μM). To prevent oxidation, IL-33 was reconstituted in 10 mM β-mercaptoethanol (Sigma-Aldrich) to a concentration of 0.1 mg/mL and IL-1β was reconstituted to 0.250 mg/mL. All peptides were purchased from Peptide 2.0 (Chantilly, VA) and designed based on IL1RAcP hotspot residues known to interact with IL-33/ST2 and surrounding residues based on the canonical sequence of IL1RAcP (Uniprot #Q9NPH3). All peptides were modified with acetylated N-terms and amidated C-terms to optimize stability and cyclic peptides cyclized via thioether or disulfide bond. Candidate peptides for the final molecule were also modified with an azido-Lysine and additional N-term alanine or cysteine, to provide the azide group for copper free click chemistry and maintain cyclization. Peptides were stored at −20° C. in lyophilized aliquots of 100 μg or 200 μg and −80° C. after reconstitution in sterile DMSO to a concentration of 10 mM.
SPR experiments were carried out on an OpenSPR instrument (Nicoya). Gold nanoparticle sensor chips (Nicoya) were functionalized by incubation in a solution of ethanol and 10 mM 11-Mercaptoundecanoic acid (MUDA) at RT for a minimum of 48 h, then stored in ethanol at 4° C. until use. Chips were activated with a solution of 200 mM EDC and 50 mM NHS for 3 m at RT. […] Data was analyzed with TraceDrawer software to a 1:1 fit model.

[3] = biological target: T2, ST2 (Homo sapiens, UniProt Q01638); conditions: reported value; read-out: Kd of ST2/IL-33 binary complex; cited from earlier work
T2 sequence (Q01638 19-556): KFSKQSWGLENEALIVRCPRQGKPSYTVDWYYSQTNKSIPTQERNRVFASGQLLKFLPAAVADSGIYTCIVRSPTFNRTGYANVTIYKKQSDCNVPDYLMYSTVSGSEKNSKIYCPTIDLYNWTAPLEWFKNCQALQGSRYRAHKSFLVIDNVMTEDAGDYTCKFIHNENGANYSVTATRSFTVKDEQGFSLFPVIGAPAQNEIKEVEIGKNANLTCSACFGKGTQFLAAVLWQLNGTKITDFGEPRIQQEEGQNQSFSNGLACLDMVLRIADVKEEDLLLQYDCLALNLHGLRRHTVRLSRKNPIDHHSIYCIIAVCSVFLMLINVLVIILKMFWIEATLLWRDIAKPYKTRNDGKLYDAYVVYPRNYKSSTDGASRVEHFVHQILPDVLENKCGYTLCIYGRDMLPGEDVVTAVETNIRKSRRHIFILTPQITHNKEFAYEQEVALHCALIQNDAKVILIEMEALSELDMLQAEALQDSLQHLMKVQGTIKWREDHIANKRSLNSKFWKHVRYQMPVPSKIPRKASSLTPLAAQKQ

[4] = biological target: ST2/IL-33 binary complex (recombinant FLAG-tagged ST2 extracellular domain with recombinant mature IL-33) (UniProt Q01638); test: SPR (OpenSPR): FLAG-ST2 captured on anti-FLAG mAb and loaded with IL-33, peptide as analyte, 1:1 fit; five sensorgrams, the highest to about 300 RU
[5] = biological target: ST2/IL-33 binary complex (recombinant FLAG-tagged ST2 extracellular domain with recombinant mature IL-33) (UniProt Q01638); test: SPR (OpenSPR): FLAG-ST2 captured on anti-FLAG mAb and loaded with IL-33, peptide as analyte, 1:1 fit; five sensorgrams, the highest to about 350 RU
[6] = biological target: ST2/IL-33 binary complex (recombinant FLAG-tagged ST2 extracellular domain with recombinant mature IL-33) (UniProt Q01638); test: SPR (OpenSPR): FLAG-ST2 captured on anti-FLAG mAb and loaded with IL-33, peptide as analyte, 1:1 fit; five sensorgrams, the highest to about 390 RU
[7] = biological target: ST2/IL-33 binary complex (recombinant FLAG-tagged ST2 extracellular domain with recombinant mature IL-33) (UniProt Q01638); test: SPR (OpenSPR), KD compared
[8] = biological target: T3, IL-33/ST2 on HEK-Blue IL-33 reporter cells (recombinant IL-33 with ST2 stably expressed on the cells), Q01638; test: cell-based or functional assay
T3 chain 1: T2 sequence (Q01638 19-556)
T3 chain 2: T1 sequence (O95760 112-270)

[9] = biological target: ST2/IL-33 binary complex (recombinant FLAG-tagged ST2 extracellular domain with recombinant mature IL-33) (UniProt Q01638); test: DSS cross-linking and western blot, 1 µM MSTOP, competitor IL-1RAcP
[10] = biological target: ST2/IL-33 binary complex (recombinant FLAG-tagged ST2 extracellular domain with recombinant mature IL-33) (UniProt Q01638); test: DSS cross-linking and western blot, 100 nM MSTOP compared with 10 µM free WT peptides, competitor IL-1RAcP
[11] = biological target: ST2/IL-33 binary complex (recombinant FLAG-tagged ST2 extracellular domain with recombinant mature IL-33) (UniProt Q01638); test: DSS cross-linking and western blot, 10 µM MSTOP, competitor IL-1RAcP, normalised to the untreated trimer control
[12] = biological target: ST2/IL-33 binary complex (recombinant FLAG-tagged ST2 extracellular domain with recombinant mature IL-33) (UniProt Q01638); test: SPR (OpenSPR), FLAG-ST2 captured on anti-FLAG mAb and loaded with IL-33, MSTOP as analyte, 1:1 fit; MSTOP as analyte
[13] = biological target: ST2/IL-33 binary complex (recombinant FLAG-tagged ST2 extracellular domain with recombinant mature IL-33) (UniProt Q01638); test: SPR (OpenSPR): FLAG-ST2 captured on anti-FLAG mAb and loaded with IL-33, MSTOP as analyte, 1:1 fit; sensorgrams to about 620 RU. The text gives 195 nM.

## His-tagged IL1RAcP extracellular domain (S21-E359) (from UniProt Q9NPH3 21-359) (receptor)
[1]
  Kd: 10 µM

## IL-1RAcP: recombinant His-tagged IL-1 receptor accessory protein extracellular domain S21-E359
[2]
  Kd: 10 µM

B1: IL-33: recombinant interleukin-33 cytokine, ligand of ST2 (protein, UniProt O95760 1-270, looked up)
Interleukin-33: MKPKMKYSTNKISTAKWKNTASKALCFKLGKSQQKAKEVCPMYFMKLRSGLMIKKEACYFRRETTKRPSLKTGRKHKRHLVLAACQQQSTVECFAFGISGVQKYTRALHDSSITGISPITEYLASLSTYNDQSITFALEDESYEIYVEDLKKDEKKDKVLLSYYESQHPSNESGDGVDGKMLMVTLSPTKDFWLHANNKEHSVELHKCEKPLPDQAFFVLHNMHSNCVSFECKTDPGVFIGVKDNHLALIKVDSSENLCTENILFKLSET
[3]
  Kd: 0.026 nM

B2: R157 Ac-C-K(N3)-…-NH2 (S-S) (peptide)
peptide: Ac-C[Lys(N3)]EYGIQRITC-NH2
modifications: disulfide 1-11
SMILES: CC[C@H](C)[C@@H]1NC(=O)CNC(=O)[C@H](Cc2ccc(O)cc2)NC(=O)[C@H](CCC(=O)O)NC(=O)[C@H](CCCCN=[N+]=[N-])NC(=O)[C@@H](NC(C)=O)CSSC[C@@H](C(N)=O)NC(=O)[C@H]([C@@H](C)O)NC(=O)[C@H]([C@@H](C)CC)NC(=O)[C@H](CCCNC(=N)N)NC(=O)[C@H](CCC(N)=O)NC1=O
[4]
  Kd: 57 µM

B3: K238 Ac-A-K(N3)-…-NH2 (S) (peptide)
peptide: Ac-A[Lys(N3)]VGSPKNAVPPC-NH2
modifications: thioether 1-13
SMILES: CC(=O)N[C@H]1CSC[C@@H](C(N)=O)NC(=O)[C@@H]2CCCN2C(=O)[C@@H]2CCCN2C(=O)[C@H](C(C)C)NC(=O)[C@H](C)NC(=O)[C@H](CC(N)=O)NC(=O)[C@H](CCCCN)NC(=O)[C@@H]2CCCN2C(=O)[C@H](CO)NC(=O)CNC(=O)[C@H](C(C)C)NC(=O)[C@H](CCCCN=[N+]=[N-])NC1=O
[5]
  Kd: 105 µM

B4: K343/K346 Ac-C-K(N3)-…-NH2 (S-S) (peptide)
peptide: Ac-C[Lys(N3)]GEVAKAAKVKC-NH2
modifications: disulfide 1-13
SMILES: CC(=O)N[C@H]1CSSC[C@@H](C(N)=O)NC(=O)[C@H](CCCCN)NC(=O)[C@H](C(C)C)NC(=O)[C@H](CCCCN)NC(=O)[C@H](C)NC(=O)[C@H](C)NC(=O)[C@H](CCCCN)NC(=O)[C@H](C)NC(=O)[C@H](C(C)C)NC(=O)[C@H](CCC(=O)O)NC(=O)CNC(=O)[C@H](CCCCN=[N+]=[N-])NC1=O
[6]
  Kd: 47 µM

B5: MSTOP prototype (Multivalent Specific Topology-targeting DNA-Origami Peptide Inhibitor): 3-way junction DNA scaffold carrying three cyclized azidolysine … (designed binder)
peptide 1: Ac-CKEYGIQRITC-NH2
peptide 2: Ac-AKVGSPKNAVPPC-NH2
peptide 3: Ac-CKGEVAKAAKVKC-NH2
modifications: disulfide I:1-I:11, III:1-III:13; thioether II:1-II:13; not fully specified (some residues); also: three peptides held on a 3-way junction DNA scaffold via DBCO staple strands
[7]
  fold increase in affinity compared to the individual peptides and IL-1RAcP: 100 fold
[8]
  IL-33 induced SEAP expression (HEK-Blue IL-33 reporter cells, 1 µM MSTOP): 40 % reduction
[9]
  reduction of trimer formation: 40%
[10]
  fold increase in efficiency against the 10 µM WT peptide treatment: 100 fold
[11]
  reduction in trimer formation: 70%
[12]
  Kd: 0.195 µM
[13]
  Kd: 0.127 µM
